Tests used:
[1] = In vitro kinetic assay of purified HACS variants, coupled with CaAbfT formyl-CoA generation; substrate formaldehyde; assay type: biochemical; details: for Km: read-out: Km, app
Description: (§1) The kinetic assay was performed with a coupled reaction providing formyl-CoA from formate catalyzed by CoA transferase CaAbfT using acetyl-CoA as a CoA donor.
(§2) In vitro kinetic assay was comprised of 100 mM KPi pH 6.9, 10 mM MgCl2, 0.15 mM TPP, 2 mM acetyl-CoA, 1 μM CaAbfT, 0.25 μM HACS variants, and 20 mM sodium formate. Reactions were incubated at room temperature for 3 min to convert formate to formyl-CoA, and then specific concentration of aldehyde (specifically acetaldehyde or propionaldehyde here) was added to the reaction. After incubating another 3 min, 1/20 of the reaction volume of 10 M NaOH solution was added to terminate the reactions. After 30 min hydrolysis, 1/20 of the reaction volume of 10 N H2SO4 was added to neutralize the pH. Samples were centrifuged at 20817×g for 15 minutes and the supernatant analyzed by GC-MS as described below.
(§3) For this analysis, 0.15 of the reaction volume of internal standard methyl succinate was added to the samples. The resulting sample was extracted into 4 mL ethyl acetate by vigorous vortexing for 20 min. The organic phase was separated and evaporated to dryness under a stream of nitrogen. The residue was dissolved in 30 μL pyridine and 30 μL N,O-Bis(trimethylsilyl)trifluoroacetamide (BSTFA) and incubated at 60° C. for 15 minutes. Compound identification and analysis was performed by GC-MS using an Agilent 7890B Series Custom Gas Chromatography system equipped with a 5977B Inert Plus Mass Selective Detector Turbo EI Bundle (for identification) and an Agilent HP-5-ms capillary column (0.25 mm internal diameter, 0.25 μm film thickness, 30 m length). Samples were analyzed by GC (1 μL injection with a 20:1 split ratio) using helium as the carrier gas at a flowrate of 1.5 mL/min and the following temperature profile: initial 90° C. for 3 min; ramp at 15° C./min to 170° C.; ramp at 20° C./min to 300° C. and hold for 8 min. The injector and detector temperature were 250° C. and 350° C., respectively.
(§4) As hypothesized from Example 3 (FIG. 22B), JGI15 had lower Km with lower kcat with respect to formaldehyde in comparison with JGI20 (Table 8). With longer chain aldehydes JGI15 and JGI20 has lower Km (sub millimolar) to acetaldehyde and propionaldehyde compared to JGI23 and JGI24, while also lower Kcat as well. Which indicates they have stronger affinity to the aldehyde and lower enzymatic activity. JGI23 and JGI24 are promising as they have better activity (higher Kcat) which have a good potential to work better in vivo by improve their affinity to substrates (lower Km). Similarly, AcHACL as lower Km with acetone while JGI15 as better Kcat (Table 8).

[2] = In vitro kinetic assay of purified HACS variants; substrate acetaldehyde; assay type: biochemical; details: for Km: read-out: Km, app
Description: as §1, §2, §3, §4

[3] = In vitro kinetic assay of purified HACS variants; substrate propionaldehyde; assay type: biochemical; details: for Km: read-out: Km, app
Description: as §1, §2, §3, §4

[4] = test system: glycolate production from formaldehyde; assay: Resting-cell bioconversion pathway 1 (HACS with LmACR-EcAldA), formaldehyde as sole carbon source; assay type: cell-based, E. coli; details: for glycolate productivity (glycolyl-CoA synthase activity) compared with RuHACL: 5 mM formaldehyde as sole carbon source
Text: We used glycolic acid (glycolate) productivity per cell density (uM glycolate/OD600) as indicator of HACS activity. Two different enzymatic routes for glycolate synthesis are explored. The first pathway (pathway 1) is similar to the pathway used for initial screening in Example 2 with addition of an extra gene, aldehyde dehydrogenase aldA from Escherichia coli (EcAldA) overexpressed to drive flux from glycolaldehyde to glycolate (FIG. 21A). In addition, HACS and LmACR-AldA are controlled under independent inducible promoters to investigate the impact of varying relative gene expressions (FIG. 21B). The second pathway (pathway 2) involves independent fluxes of formaldehyde and formyl-CoA allowing assessment of the enzyme activity with response to changing formaldehyde concentration only, while maintaining constant formyl-CoA flux. Formyl-CoA is generated by formic acid (formate) catalyzed by the acyl-CoA transferase from Clostridium aminobutyricum (CaAbfT) (FIG. 22A).
For the in vivo prototyping, we engineered vectors to independently control expression of HACS variants and the LmACR-EcAldA (pathway 1, FIG. 21A) or CaAbfT (pathway 2, FIG. 22A), with HACS under control of the IPTG-inducible T7 promoter in pCDFDuet-1 and LmACR-EcAldA or CaAbfT under control of a cumate-inducible T5 promoter in pETDuet-1 (FIG. 21B). As a host for these vectors, we used an engineered strain of E. coli based on MG1655(DE3) with knockouts for formaldehyde (ΔfrmA) and formate (ΔfdhF ΔfdnG ΔfdoG) oxidation as well as for glycolate utilization (ΔglcD)), which we expected could compete or interfere with the analysis of our pathway. […]
Cells from the above pre-cultures were then centrifuged (4000 rpm, 22° C.), washed with the above minimal media without any carbon source, and resuspended with 1 mL of above minimal media containing indicated amounts of carbon source. […] The cells were harvested after 3 hours for LmACR-EcAldA co-expression and 1 hour for CaAbfT co-expression by centrifugation and the supernatant analyzed by HPLC or GC-MS as described in EXAMPLE 2. […]

[5] = test system: 2HIB production from acetone and formate; assay: HACS screening with acetone and formate (2HIB production); assay type: cell-based, E. coli; details: 100 mM acetone and 20 mM formate, CaAbfT
Description: The HACS variants are tested using the high throughput screening platform as described in EXAMPLE 3 pathway 2 by co-feeding 100 mM acetone and 20 mM formate with formate activation enzyme CaAbfT (FIG. 37A).

| Molecule | Kcat, app [1] [s⁻¹] | Km [1] [mM] | Kcat, app [2] [s⁻¹] | Km [2] [µM] | Kcat, app [3] [s⁻¹] | Km [3] [µM] | glycolate productivity (glycolyl-CoA synthase activity) compared with RuHACL [4] | glycolate productivity relative to RuHACL ([4]; 5 mM formaldehyde sole carbon source, optimal inducer concentrations, 3 hours) [fold] | performance in 2HIB production [5] | performance in 2HIB production ([5]; listed as JG115) |
| --- | --- | --- | --- | --- | --- | --- | --- | --- | --- | --- |
| JGI15: HACS variant; GenBank HAK63664.1 (protein) MAKSEGKVNGATLMARALQQQGVQYMFGIVGFPVIPIAIAAQREGITYIGMRNEQSASYAAQAASYLTGRPQACLVVSGPGVVHALAGLANAQVNCWPMLLIGGASAIEQNGMGAFQEERQVLLASPLCKYAHQVERPERIPYYVEQAVRSALFGRPGAAYLDMPDDVILGEVEEAAVRPAATVGEPPRSLAPQENIEAALDALQSAKRPLVIVGKGMAWSRAENEVRQFIERTRLPFLATPMGKGVMPDDHPLSVGGARSHALQEADLVFLLGARFNWILHFGLPPRYSKDVRVIQLDLSAEEIGNNRQAEVALVGDGKAIVGQLNQALSSRQWFYPAETPWREAIAAKIAGNQAAVAPMIADNTSPMNYYRVYRDIAARLPRNAIIVGEGANTMDIGRTQMPNFEPRSRLDAGSYGTMGIGLGFAVAAAAVHPGRPVIAVQGDSAFGFSGMEFETAARYGMPIKVIILNNGGIGMGSPAPRDGQPGMPHALSHDARYERIAEAFGGAGFYVTDSAELGPALDAAMAFKGPAIVNIKIAATADRKPQQFNWHG | 5.98 | 3.87 | 22.50 ± 1.93 | 290 ± 20 | 11.08 ± 0.02 | 200 ± 40 | exceeding the starting reference enzyme, RuHACL | 2.5 | best performance | better performance than other HACLs |
| JGI20: HACS variant; GenBank PWB41796.1 (protein) MGQITGAQIVARALKQQGVEYMFGIVGIPVIPIAMFAQREGIKFYGFRNEQSASYAAAAVGYLTGRPGVCLGVSGPGMIHGVAGMANAWSNCWPMILIGGANDSYQNGQGAFQEAPQIEAARPFAKYCARPDSLARLPFYVEQAVRTSIYGRPGAVYLDLPGDIITGAMEEEDVHFPPRCPDAPRMMAPQESIDAAMAALKSAERPLVIVGKGAAYSRAENEVREFLETTQLPYLASPMGKGVMPDDHPLSIAPARSAALLGADVILLMGARLNWMMHFGHPPRFDPKVRVIQMDISAEEIGTNVPTEVALVGDAKAITTQLNASLKQQPWQYPSETTWWTGLRKKIDENGATVAEMMADESVPMSYYRVYREIRDLIPNDAIIQNEGASTMDIGRTLMPNFLPRHRLDAGSFGTMGVGLGQAIAAAAVHPDKHVFCIEGDSAFGFSGMEVETAARYGMKNITFIIINNNGIGGGPDTLDPTRVPPSAYTPNAHYEKMAEIYGGKGYFVTEPSQLRPALEEAIKADKPAIVNIMISATSQRKPQQFAWLTR | 9.53 | 21.4 | 39.44 ± 3.95 | 930 ± 150 | 17.35 ± 1.97 | 420 ± 60 | exceeding the starting reference enzyme, RuHACL |  | better performance than other HACLs |  |

Reference: patent US20260078416A1, “ORTHOGONAL METABOLIC FRAMEWORK FOR ONE-CARBON UTILIZATION” (Mojia Biotech Pte. Ltd., priority 2021, published 2026)
